The target of this assay is human EpCAM (human) (UniProt P16422). The experiment in a line: binding affinity, method not stated.
Sequence of UniProt P16422 (P16422 24-265 limits assumed): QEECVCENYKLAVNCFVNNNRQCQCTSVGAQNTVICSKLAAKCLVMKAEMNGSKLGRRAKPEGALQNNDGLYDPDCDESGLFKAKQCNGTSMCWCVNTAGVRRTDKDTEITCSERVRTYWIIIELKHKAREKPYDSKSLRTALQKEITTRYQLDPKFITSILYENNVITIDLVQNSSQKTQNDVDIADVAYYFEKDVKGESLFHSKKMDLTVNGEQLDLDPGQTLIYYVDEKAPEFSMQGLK

B1: hVIB-13 (VHH)
VHH: QVQLVESGGGLVQPGGSLTLSCAASGTGSIFSINLMGWYRQAPGKQRELVARITSGDSTVYADSVKGRFTISRDNSKNTLYLQMNSLRPEDTAVYYCNLLLRSSPGATTPYWGQGTLVTVSS
As usually defined, the Kd is the equilibrium constant for the complex coming apart. Higher therefore signals lower affinity. In turn, B1 had a Kd of 2.8 nM.

(Values after US20230414752A1.)
